The values below come from paper doi:10.1101/2022.11.23.517744.

“And” between values parts separate entries of the source, which are not always exact repeats. Equal values may be shown once.

For this assay, the target named is human vinculin D1D2 (head domain subunits D1D2), wild type (human). The experiment in a line: native gel or EMSA. On the technique in general: In EMSA bound probe runs differently from free probe, usually more slowly.

“Shigella IpaA-VBS123 (C-terminal region with the three vinculin binding sites), wild type, GST cleaved (domain or fragment)”: the stoichiometry N (D1D2 per IpaA-VBS123) was 2 and 3.
